We go through nine molecules from paper PMC5045167, “STN1 OB Fold Mutation Alters DNA Binding and Affects Selective Aspects of CST Function”.

The target of data set [1] is T1, CST(WT) (CTC1-STN1-TEN1) (human, UniProt Q2NKJ3;Q9H668;Q86WV5 1-1217;1-368;1-123). Kind of data set: EMSA; up to 20 nM CST; 25 mM Tris pH 8.0, 1 mM DTT, 150 mM NaCl; EMSA 0.1 nM DNA, 30 min RT; filter binding 0.01 nM DNA, 18 h 4 C; crosslinking 20 nM CST, 2 nM DNA, UVA on ice. The following applies: protein: recombinant; tags: N-terminal FLAG-CTC1, His-STN1; TEN1 untagged (Methods says all tags N-terminal); copies: 1;1;1; label: 32P. A general note: A gel shift assay detects complexes by their altered migration in electrophoresis.

For data set [2], the target named is T2, CST(STN1-OBM) (human, UniProt Q2NKJ3;Q9H668;Q86WV5 1-1217;1-368;1-123, W89A;R139L;Y141A). The data set is described as above. To be noted: protein: recombinant; tags: N-terminal FLAG-CTC1, His-STN1-OBM; TEN1 untagged; copies: 1;1;1; label: 32P.
Data set [3] addresses T1, CST(WT) (CTC1-STN1-TEN1). In words: UV crosslinking; CTC1 and STN1 crosslinked; 25 mM Tris pH 8.0, 1 mM DTT, 150 mM NaCl; EMSA 0.1 nM DNA, 30 min RT; filter binding 0.01 nM DNA, 18 h 4 C; crosslinking 20 nM CST, 2 nM DNA, UVA on ice. The following applies: protein: recombinant; tags: N-terminal FLAG-CTC1, His-STN1; TEN1 untagged (Methods says all tags N-terminal); copies: 1;1;1; label: 32P.

Data set [4] addresses T1, CST(WT) (CTC1-STN1-TEN1). In words: EMSA; 25 mM Tris pH 8.0, 1 mM DTT, 150 mM NaCl; EMSA 0.1 nM DNA, 30 min RT; filter binding 0.01 nM DNA, 18 h 4 C; crosslinking 20 nM CST, 2 nM DNA, UVA on ice. To be noted: protein: recombinant; tags: N-terminal FLAG-CTC1, His-STN1; TEN1 untagged (Methods says all tags N-terminal); copies: 1;1;1; label: 32P.
For data set [5], the target named is T1, CST(WT) (CTC1-STN1-TEN1). In words: UV crosslinking; CTC1 and (less efficiently) STN1 crosslinked; 25 mM Tris pH 8.0, 1 mM DTT, 150 mM NaCl; EMSA 0.1 nM DNA, 30 min RT; filter binding 0.01 nM DNA, 18 h 4 C; crosslinking 20 nM CST, 2 nM DNA, UVA on ice. To be noted: protein: recombinant; tags: N-terminal FLAG-CTC1, His-STN1; TEN1 untagged (Methods says all tags N-terminal); copies: 1;1;1; label: 32P.

The target in data set [6] is T2, CST(STN1-OBM). In words: EMSA; similar affinity to CST(WT); 25 mM Tris pH 8.0, 1 mM DTT, 150 mM NaCl; EMSA 0.1 nM DNA, 30 min RT; filter binding 0.01 nM DNA, 18 h 4 C; crosslinking 20 nM CST, 2 nM DNA, UVA on ice. The following applies: protein: recombinant; tags: N-terminal FLAG-CTC1, His-STN1-OBM; TEN1 untagged; copies: 1;1;1; label: 32P.
Data set [7] addresses T1, CST(WT) (CTC1-STN1-TEN1). Kind of data set: UV crosslinking; CTC1, STN1 and TEN1 crosslinked; 25 mM Tris pH 8.0, 1 mM DTT, 150 mM NaCl; EMSA 0.1 nM DNA, 30 min RT; filter binding 0.01 nM DNA, 18 h 4 C; crosslinking 20 nM CST, 2 nM DNA, UVA on ice. The following applies: protein: recombinant; tags: N-terminal FLAG-CTC1, His-STN1; TEN1 untagged (Methods says all tags N-terminal); copies: 1;1;1; label: 32P.

Data set [8] has as its target T1, CST(WT) (CTC1-STN1-TEN1). Kind of data set: UV crosslinking; only CTC1 reproducibly crosslinked; 25 mM Tris pH 8.0, 1 mM DTT, 150 mM NaCl; EMSA 0.1 nM DNA, 30 min RT; filter binding 0.01 nM DNA, 18 h 4 C; crosslinking 20 nM CST, 2 nM DNA, UVA on ice. The following applies: protein: recombinant; tags: N-terminal FLAG-CTC1, His-STN1; TEN1 untagged (Methods says all tags N-terminal); copies: 1;1;1; label: 32P.

Data set [9] addresses T1, CST(WT) (CTC1-STN1-TEN1). In words: filter binding; Kd,app measured, value only in Fig 6C; 25 mM Tris pH 8.0, 1 mM DTT, 150 mM NaCl; EMSA 0.1 nM DNA, 30 min RT; filter binding 0.01 nM DNA, 18 h 4 C; crosslinking 20 nM CST, 2 nM DNA, UVA on ice. The following applies: protein: recombinant; tags: N-terminal FLAG-CTC1, His-STN1; TEN1 untagged (Methods says all tags N-terminal); copies: 1;1;1; label: 32P.

T1 sequence (Q2NKJ3 whole entry, chain 1 of 3): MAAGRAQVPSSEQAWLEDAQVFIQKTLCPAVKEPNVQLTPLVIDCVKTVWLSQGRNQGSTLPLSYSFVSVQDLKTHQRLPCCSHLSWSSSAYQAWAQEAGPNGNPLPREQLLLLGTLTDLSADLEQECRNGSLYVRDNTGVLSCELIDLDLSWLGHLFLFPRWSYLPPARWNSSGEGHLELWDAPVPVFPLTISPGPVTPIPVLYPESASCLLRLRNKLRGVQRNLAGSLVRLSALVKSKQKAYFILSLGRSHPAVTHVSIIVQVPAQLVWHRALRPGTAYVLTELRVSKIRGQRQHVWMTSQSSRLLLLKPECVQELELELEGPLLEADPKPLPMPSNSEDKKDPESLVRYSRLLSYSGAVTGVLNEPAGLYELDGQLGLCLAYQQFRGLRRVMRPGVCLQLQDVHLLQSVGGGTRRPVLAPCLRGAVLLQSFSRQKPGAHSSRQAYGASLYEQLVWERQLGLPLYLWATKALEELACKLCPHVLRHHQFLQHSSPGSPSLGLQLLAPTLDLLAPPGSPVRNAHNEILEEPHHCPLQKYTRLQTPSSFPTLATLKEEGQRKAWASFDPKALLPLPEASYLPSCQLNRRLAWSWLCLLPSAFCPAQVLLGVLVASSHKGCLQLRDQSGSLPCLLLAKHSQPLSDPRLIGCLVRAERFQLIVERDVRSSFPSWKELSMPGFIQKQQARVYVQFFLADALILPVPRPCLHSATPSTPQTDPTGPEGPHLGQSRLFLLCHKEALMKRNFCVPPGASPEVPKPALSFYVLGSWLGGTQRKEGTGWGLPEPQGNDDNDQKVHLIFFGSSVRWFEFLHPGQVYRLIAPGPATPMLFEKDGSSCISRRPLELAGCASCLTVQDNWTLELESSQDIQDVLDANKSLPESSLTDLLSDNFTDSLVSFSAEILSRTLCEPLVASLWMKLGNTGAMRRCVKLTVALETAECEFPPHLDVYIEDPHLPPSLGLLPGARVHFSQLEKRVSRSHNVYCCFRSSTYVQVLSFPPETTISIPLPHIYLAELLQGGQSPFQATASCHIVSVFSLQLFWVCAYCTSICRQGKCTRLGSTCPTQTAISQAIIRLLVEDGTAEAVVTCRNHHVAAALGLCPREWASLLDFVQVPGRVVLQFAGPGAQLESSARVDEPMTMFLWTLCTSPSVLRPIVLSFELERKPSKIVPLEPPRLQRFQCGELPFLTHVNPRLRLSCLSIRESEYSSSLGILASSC
T1 sequence (Q9H668 whole entry, chain 2 of 3): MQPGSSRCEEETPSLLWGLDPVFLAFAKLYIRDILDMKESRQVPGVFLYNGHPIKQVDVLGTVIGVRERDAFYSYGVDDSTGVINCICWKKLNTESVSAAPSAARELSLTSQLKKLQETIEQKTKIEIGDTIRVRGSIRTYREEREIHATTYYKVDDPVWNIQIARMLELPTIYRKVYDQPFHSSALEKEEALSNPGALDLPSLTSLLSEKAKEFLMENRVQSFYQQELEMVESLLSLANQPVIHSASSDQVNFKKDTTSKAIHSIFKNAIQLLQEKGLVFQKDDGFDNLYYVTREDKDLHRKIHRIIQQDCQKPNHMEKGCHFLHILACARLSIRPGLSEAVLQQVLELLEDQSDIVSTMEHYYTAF
T1 sequence (Q86WV5 whole entry, chain 3 of 3): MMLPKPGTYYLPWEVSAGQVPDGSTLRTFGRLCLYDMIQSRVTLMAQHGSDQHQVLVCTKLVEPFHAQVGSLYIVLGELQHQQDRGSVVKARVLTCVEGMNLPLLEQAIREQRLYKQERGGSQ
T2 sequence (Q2NKJ3 whole entry, chain 1 of 3): as the sequence (Q2NKJ3 whole entry, chain 1 of 3) above
T2 sequence (Q9H668 whole entry W89A/R139L/Y141A, chain 2 of 3): as the sequence (Q9H668 whole entry, chain 2 of 3) above, with W89A, R139L, Y141A counted along it
T2 sequence (Q86WV5 whole entry, chain 3 of 3): as the sequence (Q86WV5 whole entry, chain 3 of 3) above

Regarding AGCGTATCCGTTCAGTTG (ssDNA) [NonTel-18], the binding result with CST(WT) (CTC1-STN1-TEN1) [1] and with CST(STN1-OBM) [2] was “no binding” throughout.

As to GGTTAGGGTTAGGGTTAG (ssDNA, 4-thiothymidine at position 16 (third nt from 3' end)) [3'-s4T TelG-18], the binding result in the data set with CST(WT) (CTC1-STN1-TEN1) [3] is “binds”.

On to AGCGTATCCGTTCAGTTGAGCGTATCCGTTCAGTTG (ssDNA) [NonTel-36], for which the binding result with CST(WT) (CTC1-STN1-TEN1) [4] is recorded as “binds”.

Regarding GGTTAGGGTTAGGGTTAG (ssDNA, 4-thiothymidine at position 3 (third nt from 5' end)) [5'-s4T TelG-18], the binding result with CST(WT) (CTC1-STN1-TEN1) [5] is “binds”.

As to GGTTAGGGTTAGGGTTAGGGTTAGGGTTAGGGTTAGGGTTAGGGTTAG (ssDNA) [TelG-48], the binding result with CST(WT) (CTC1-STN1-TEN1) [4] and with CST(STN1-OBM) [6] was “binds” throughout.

For the molecule GGTTAGGGTTAGGGTTAGGGTTAGGGTTAGGGTTAGGGTTAGGGTTAG (ssDNA, 4-thiothymidine at position 46 (third nt from 3' end)) [3'-s4T TelG-48], the binding result with CST(WT) (CTC1-STN1-TEN1) [7] is given as “binds”.

On to GGTTAGGGTTAGGGTTAGGGTTAGGGTTAGGGTTAGGGTTAGGGTTAG (ssDNA, 4-thiothymidine at position 3 (third nt from 5' end)) [5'-s4T TelG-48], for which the binding result with CST(WT) (CTC1-STN1-TEN1) [8] is recorded as “binds”.

With GGTTAGGGTTAGGGTTAG (ssDNA) [TelG-18], the binding result with CST(WT) (CTC1-STN1-TEN1) [9] is reported as “binds”.

Regarding AGCGTATCCGTTCAGTTGAGCGTATCCGTTCAGTTGAGCGTATCCGTT (ssDNA) [NonTel-48], the binding result with CST(WT) (CTC1-STN1-TEN1) [4] and in the data set with CST(STN1-OBM) [6] was “binds” in each case.
